Measured values: article doi:10.1101/444554 (bioRxiv, 2018)

Tests used:
[1] = biological target: the molecule itself; assay: crystal structure
[2] = biological target: the molecule itself; assay: non-reducing SDS-PAGE
[3] = biological target: the molecule itself; assay: SEC-MALS

B1: mouse 4-1BB ligand ectodomain (amino acids 140-309) without purification tag, co-expressed with m4-1BB for the complex structure (domain or fragment, UniProt P41274 140-309, looked up)
chain: TTQQGSPVFAKLLAKNQASLCNTTLNWHSQDGAGSSYLSQGLRYEEDKKELVVDSPGLYYVFLELKLSPTFTNTGHKVQGWVSLVLQAKPQVDDFDNLALTVELFPCSMENKLVDRSWSQLLLLKAGHRLSVGLRAYLHGAQDAYRDWELSYPNTTSFGLFLVKPDNPWE
modifications: disulfide linked dimer
- stoichiometry N [1]: 2

B2: mouse 4-1BB ligand ectodomain (amino acids 140-309) S256F (domain or fragment, UniProt P41274 140-309, looked up)
chain: TTQQGSPVFAKLLAKNQASLCNTTLNWHSQDGAGSSYLSQGLRYEEDKKELVVDSPGLYYVFLELKLSPTFTNTGHKVQGWVSLVLQAKPQVDDFDNLALTVELFPCSMENKLVDRFWSQLLLLKAGHRLSVGLRAYLHGAQDAYRDWELSYPNTTSFGLFLVKPDNPWE
modifications: inter-molecular disulfide through Cys 246
- stoichiometry N [2]: 2

B3: mouse 4-1BB ligand ectodomain (amino acids 140-309) C246S (domain or fragment, UniProt P41274 140-309, looked up)
chain: TTQQGSPVFAKLLAKNQASLCNTTLNWHSQDGAGSSYLSQGLRYEEDKKELVVDSPGLYYVFLELKLSPTFTNTGHKVQGWVSLVLQAKPQVDDFDNLALTVELFPSSMENKLVDRSWSQLLLLKAGHRLSVGLRAYLHGAQDAYRDWELSYPNTTSFGLFLVKPDNPWE
- stoichiometry N [3]: 2
